The target of assay [1] is Paclitaxel-stabilised microtubules containing 10% X-rhodamine-labelled and 10% biotin-labelled tubulin (porcine) (UniProt P02550).
The target of assay [2] is Paclitaxel-stabilised microtubules of unlabelled porcine brain tubulin (porcine) (UniProt P02550).
In assay [3] the target is P. falciparum kinesin-8X motor domain with C-terminal SNAPf tag, biotinylated (Pfkinesin-8X-MD-SNAP) (P. falciparum).
In assay [4] the target is P. berghei kinesin-8X motor domain with C-terminal SNAPf tag, biotinylated (Pbkinesin-8X-MD-SNAP) (P. berghei).

In assay [1], “P. berghei kinesin-8X motor domain (Pbkinesin-8X-MD) (domain or fragment)” yielded an MT depolymerization rate with AMPPNP (TIRF microscopy, 2.5 uM motor domain, 5 mM nucleotide, room temperature) of 1.8 nm/s and an MT depolymerization rate with ATP (TIRF microscopy, 2.5 uM motor domain, 5 mM nucleotide, room temperature) of 4.3 nm/s. In assay [2], this substance returned an MT-stimulated ATPase activity, K1/2(MT) (enzyme-coupled assay, 250 nM motor domain, 0-6 uM paclitaxel-stabilised MTs, 37°C) of 2.2 µM and an MT-stimulated ATPase activity, Vmax (enzyme-coupled assay, 37°C) of 2.2 ATP/s.
As for “P. falciparum kinesin-8X motor domain (Pfkinesin-8X-MD) (domain or fragment)”, in assay [1], the MT depolymerization rate with AMPPNP (TIRF microscopy, 2.5 uM motor domain, 5 mM nucleotide, room temperature) was 0.3 nm/s and the MT depolymerization rate with ATP (TIRF microscopy, 2.5 uM motor domain, 5 mM nucleotide, room temperature) amounted to 0.5 nm/s. In assay [2], the MT-stimulated ATPase activity, K1/2(MT) (enzyme-coupled assay, 250 nM motor domain, 0-6 uM paclitaxel-stabilised MTs, 26°C) was found to be 1.3 µM and the MT-stimulated ATPase activity, Vmax (enzyme-coupled assay, 26°C) was 6.5 ATP/s.
Consider “Paclitaxel-stabilised microtubules containing 10% X-rhodamine-labelled tubulin (from UniProt P02550 1-451) (complex)”, for which the MT gliding velocity on surface-held biotinylated motor domain (TIRF microscopy, 5 mM ATP, room temperature) in assay [3] came out at 3.7 nm/s; in assay [4] it was 17.8 nm/s.

The record behind these values is paper PMC6786531.
